These results are taken from the supplement of paper PMC5998384.

Data set [1] deals with HeLa Kyoto. As to the kind of experiment: thermal stability score vs G1/S (z-score of summed log2 fold changes over temperatures); higher = more thermally stable than in G1/S.
Data set [2] concerns HeLa Kyoto. As to the kind of experiment: melting temperature (median over replicates), in situ; higher = more thermally stable.
For data set [3], the system named is HeLa Kyoto. As to the kind of experiment: solubility change mitosis vs G1/S (difference of NP-40 vs SDS log2 ratios) (log2 ratio difference); higher = more soluble in mitosis.
Data set [4] has as its system HeLa Kyoto. As to the kind of experiment: solubility in G1/S (NP-40 vs SDS abundance) (log2 ratio); higher = more soluble. As to conditions: cell cycle stage: G1/S.
[5] abbreviates: cell cycle stage: early G1 (4.5 h after nocodazole release).
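Wherever melting temperature (median over replicates), in situ is given: HeLa Kyoto cells synchronized by double thymidine or nocodazole block, proteins quantified by TMT10plex mass spectrometry, three independent biological replicates.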
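Wherever solubility change mitosis vs G1/S (difference of NP-40 vs SDS log2 ratios) is given: synchronized HeLa Kyoto cells (double thymidine block for G1/S, nocodazole release for mitosis), protein amounts in NP-40 versus SDS lysates quantified by mass spectrometry, three biological replicates.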
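Wherever solubility in G1/S (NP-40 vs SDS abundance) is given: HeLa Kyoto cells arrested at G1/S by double thymidine block, proteins quantified by TMT10plex mass spectrometry in mild NP-40 versus SDS extracts, three biological replicates.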
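Wherever thermal stability score vs G1/S (z-score of summed log2 fold changes over temperatures) is given: synchronized HeLa Kyoto cells, proteins quantified by TMT10plex mass spectrometry, three biological replicates, mitosis taken 0.5 h after nocodazole release, G1/S directly after double thymidine block.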

Chain of RHOC (chain, as listed by the source): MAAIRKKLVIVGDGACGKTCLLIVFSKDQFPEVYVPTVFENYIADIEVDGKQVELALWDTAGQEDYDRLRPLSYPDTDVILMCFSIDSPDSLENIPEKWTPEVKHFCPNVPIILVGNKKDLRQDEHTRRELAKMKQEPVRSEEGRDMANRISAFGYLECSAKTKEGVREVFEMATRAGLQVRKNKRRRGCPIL

In the case of “MADKTPGGSQKASSKTRSSDVHSSGSSDAHMDASGPSDSDMPSRTRPKSPRKHNYRNESARESLCDSPHQNLSRPLLENKLKAFSIGKMSTAKRTLSKKEQEELKKKEDEKAAAEIYEEFLAAFEGSDGNKVKTFVRGGVVNAAKEEHETDEKRGKIYKPSSRFADQKNPPNQSSNERPPSLLVIETKKPPLKKGEKEKKKSNLELFKEELKQIQEERDERHKTKGRLSRFEPPQSDSDGQRRSMDAPSRRNRSSGVLDDYAPGSHDVGDPSTTNLYLGNINPQMNEEMLCQEFGRFGPLASVKIMWPRTDEERARERNCGFVAFMNRRDAERALKNLNGKMIMSFEMKLGWGKAVPIPPHPIYIPPSMMEHTLPPPPSGLPFNAQPRERLKNPNAPMLPPPKNKEDFEKTLSQAIVKVVIPTERNLLALIHRMIEFVVREGPMFEAMIMNREINNPMFRFLFENQTPAHVYYRWKLYSILQGDSPTKWRTEDFRMFKNGSFWRPPPLNPYLHGMSEEQETEAFVEEPSKKGALKEEQRDKLEEILRGLTPRKNDIGDAMVFCLNNAEAAEEIVDCITESLSILKTPLPKKIARLYLVSDVLYNSSAKVANASYYRKFFETKLCQIFSDLNATYRTIQGHLQSENFKQRVMTCFRAWEDWAIYPEPFLIKLQNIFLGLVNIIEEKETEDVPDDLDGAPIEEELDGAPLEDVDGIPIDATPIDDLDGVPIKSLDDDLDGVPLDATEDSKKNEPIFKVAPSKWEAVDESELEAQAVTTSKWELFDQHEESEEEENQNQEEESEDEEDTQSSKSEEHHLYSNPIKEEMTESKFSKYSEMSEEKRAKLREIELKVMKFQDELESGKRPKKPGQSFQEQVEHYRDKLLQREKEKELERERERDKKDKEKLESRSKDKKEKDECTPTRKERKRRHSTSPSPSRSSSGRRVKSPSPKSERSERSERSHKESSRSRSSHKDSPRDVSKKAKRSPSGSRTPKRSRRSRSRSPKKSGKKSRSQSRSPHRSHKKSKKNKH [U2SURP]”, the thermal stability score was determined as 1.49 in the data set with HeLa Kyoto [1] (setting [5]) and 6.77 with HeLa Kyoto [1] (cell cycle stage: mitosis). Moreover, the results for the melting temperature with HeLa Kyoto [2] (cell cycle stage: G1/S) and in the data set with HeLa Kyoto [2] (cell cycle stage: mitosis) were 47.9 °C and 49.5 °C, respectively. Moreover, in the data set with HeLa Kyoto [3], the “solubility change mitosis (log2)” value amounted to 0.526. In the data set with HeLa Kyoto [4], the “solubility in G1/S (log2)” value is -0.673.

As for RHOC, the thermal stability score with HeLa Kyoto [1] (setting [5]) is -0.123; in the data set on HeLa Kyoto [1] (cell cycle stage: mitosis), -1.75. The melting temperature was 53.8 °C with HeLa Kyoto [2] (cell cycle stage: G1/S) and 54.8 °C in the data set with HeLa Kyoto [2] (cell cycle stage: mitosis). Besides, the “solubility change mitosis (log2)” value in the data set on HeLa Kyoto [3] was -0.013. In addition, in the data set on HeLa Kyoto [4], the “solubility in G1/S (log2)” value was 0.0468.

As for “MAGEGDQQDAAHNMGNHLPLLPAESEEEDEMEVEDQDSKEAKKPNIINFDTSLPTSHTYLGADMEEFHGRTLHDDDSCQVIPVLPQVMMILIPGQTLPLQLFHPQEVSMVRNLIQKDRTFAVLAYSNVQEREAQFGTTAEIYAYREEQDFGIEIVKVKAIGRQRFKVLELRTQSDGIQQAKVQILPECVLPSTMSAVQLESLNKCQIFPSKPVSREDQCSYKWWQKYQKRKFHCANLTSWPRWLYSLYDAETLMDRIKKQLREWDENLKDDSLPSNPIDFSYRVAACLPIDDVLRIQLLKIGSAIQRLRCELDIMNKCTSLCCKQCQETEITTKNEIFSLSLCGPMAAYVNPHGYVHETLTVYKACNLNLIGRPSTEHSWFPGYAWTVAQCKICASHIGWKFTATKKDMSPQKFWGLTRSALLPTIPDTEDEISPDKVILCL [CRBN]”, the thermal stability score in the data set on HeLa Kyoto [1] (setting [5]) was -0.823; in the data set with HeLa Kyoto [1] (cell cycle stage: mitosis), -2.4. Besides, the melting temperature was determined as 53.7 °C in the data set with HeLa Kyoto [2] (cell cycle stage: G1/S) and 53.4 °C in the data set with HeLa Kyoto [2] (cell cycle stage: mitosis). Also, the “solubility change mitosis (log2)” value with HeLa Kyoto [3] is -0.303. Besides, in the data set on HeLa Kyoto [4], the “solubility in G1/S (log2)” value was -0.152.

Consider “MTTSTLQKAIDLVTKATEEDKAKNYEEALRLYQHAVEYFLHAIKYEAHSDKAKESIRAKCVQYLDRAEKLKDYLRSKEKHGKKPVKENQSEGKGSDSDSEGDNPEKKKLQEQLMGAVVMEKPNIRWNDVAGLEGAKEALKEAVILPIKFPHLFTGKRTPWRGILLFGPPGTGKSYLAKAVATEANNSTFFSVSSSDLMSKWLGESEKLVKNLFELARQHKPSIIFIDEVDSLCGSRNENESEAARRIKTEFLVQMQGVGNNNDGTLVLGATNIPWVLDSAIRRRFEKRIYIPLPEEAARAQMFRLHLGSTPHNLTDANIHELARKTEGYSGADISIIVRDSLMQPVRKVQSATHFKKVCGPSRTNPSMMIDDLLTPCSPGDPGAMEMTWMDVPGDKLLEPVVCMSDMLRSLATTRPTVNADDLLKVKKFSEDFGQES [VPS4A]”, for which the thermal stability score was found to be 1.11 in the data set on HeLa Kyoto [1] (setting [5]) and 1.47 with HeLa Kyoto [1] (cell cycle stage: mitosis). Besides, the melting temperature is 48.6 °C with HeLa Kyoto [2] (cell cycle stage: G1/S) and 49.7 °C in the data set with HeLa Kyoto [2] (cell cycle stage: mitosis). In addition, the “solubility change mitosis (log2)” value with HeLa Kyoto [3] is -0.128. The “solubility in G1/S (log2)” value in the data set with HeLa Kyoto [4] worked out at 0.393.

As to “MSPTPPLFSLPEARTRFTKSTREALNNKNIKPLLSTFSQVPGSENEKKCTLDQAFRGILEEEIINHSSCENVLAIISLAIGGVTEGICTASTPFVLLGDVLDCLPLDQCDTIFTFVEKNVATWKSNTFYSAGKNYLLRMCNDLLRRLSKSQNTVFCGRIQLFLARLFPLSEKSGLNLQSQFNLENVTVFNTNEQESTLGQKHTEDREEGMDVEEGEMGDEEAPTTCSIPIDYNLYRKFWSLQDYFRNPVQCYEKISWKTFLKYSEEVLAVFKSYKLDDTQASRKKMEELKTGGEHVYFAKFLTSEKLMDLQLSDSNFRRHILLQYLILFQYLKGQVKFKSSNYVLTDEQSLWIEDTTKSVYQLLSENPPDGERFSKMVEHILNTEENWNSWKNEGCPSFVKERTSDTKPTRIIRKRTAPEDFLGKGPTKKILMGNEELTRLWNLCPDNMEACKSETREHMPTLEEFFEEAIEQADPENMVENEYKAVNNSNYGWRALRLLARRSPHFFQPTNQQFKSLPEYLENMVIKLAKELPPPSEEIKTGEDEDEEDNDALLKENESPDVRRDKPVTGEQIEVFANKLGEQWKILAPYLEMKDSEIRQIECDSEDMKMRAKQLLVAWQDQEGVHATPENLINALNKSGLSDLAESLTNDNETNS [THOC1]”, the thermal stability score with HeLa Kyoto [1] (setting [5]) turned out to be 0.442; in the data set with HeLa Kyoto [1] (cell cycle stage: mitosis) it was 3.3. Besides, the melting temperature with HeLa Kyoto [2] (cell cycle stage: G1/S) stood at 49.7 °C; with HeLa Kyoto [2] (cell cycle stage: mitosis) it was 49.5 °C. For the same substance, the “solubility change mitosis (log2)” value with HeLa Kyoto [3] stood at 0.218. For the same substance, the “solubility in G1/S (log2)” value with HeLa Kyoto [4] is -0.2.

As for HINT3, the values for the thermal stability score in the data set with HeLa Kyoto [1] (setting [5]) and in the data set on HeLa Kyoto [1] (cell cycle stage: mitosis) were -1.15 and -1.14, respectively. The melting temperature in the data set on HeLa Kyoto [2] (cell cycle stage: G1/S) came to 55.1 °C; in the data set on HeLa Kyoto [2] (cell cycle stage: mitosis), 54.7 °C. Further, in the data set on HeLa Kyoto [3], the “solubility change mitosis (log2)” value was -0.161. Besides, the “solubility in G1/S (log2)” value with HeLa Kyoto [4] turned out to be 0.186.
